{
  "source": "paper PMC12173559",
  "biological_target": "MERS-CoV receptor binding domain (RBD), biotinylated (MERS-CoV) (UniProt K9N5Q8)",
  "experiment": "BLI; […] (10 µg/mL) […] (SA) biosensor for 300 s; analyte in kinetic buffer (PBST, 0.1% BSA) […], association 120 s, dissociation 180 s; […]",
  "data": [
    {"substance": "rhesus monkey DPP4 (receptor)", "values": [
      {"measurement": "Kd", "result": 47.8, "unit": "nM"}
    ]},
    {"substance": "alpaca DPP4 (receptor)", "values": [
      {"measurement": "Kd", "result": 58.4, "unit": "nM"}
    ]}
  ]
}
